The target in assay [1] is GST-tagged histone H3 tail (UniProt P61830). Description: pull-down; GST-H3 tail or GST-H4 tail immobilised on glutathione beads; in vitro translated [35S]-Gro variants; overnight at 4°C in HEMNK buffer (40 mM HEPES pH 7.5, 5 mM MgCl2, 0.2 mM EDTA, 1 mM DTT, 0.5% NP-40, 0.1 M KCl); autoradiography.
Assay [2] concerns the target GST-tagged histone H4 tail (UniProt P02309). Described as above.

In the case of “Gro^ΔCR, Gro deletion variant lacking the entire central region (GP, CcN and SP domains), untagged (from UniProt P16371 1-730) (natural protein)”, the fold reduction of binding against Gro^WT in assay [1] and in assay [2] was above 4 fold each time.

These data come from paper PMC3272004.
